In patent publication US8507651B2, “Treatment of diseases and conditions mediated by increased phosphorylation” (DMI Acquisition Corp., priority 2002, dated 2013):

B1: chicken egg yolk phosvitin (dephosphorylated): Phosvitin extracted from the yolks of chicken eggs and dephosphorylated; estimated about 20-50% dephosphorylated (protein, UniProt P02845 1112-1328, looked up)
Phosvitin: AEFGTEPDAKTSSSSSSASSTATSSSSSSASSPNRKKPMDEEENDQVKQARNKDASSSSRSSKSSNSSKRSSSKSSNSSKRSSSSSSSSSSSSRSSSSSSSSSSNSKSSSSSSKSSSSSSRSRSSSKSSSSSSSSSSSSSSKSSSSRSSSSSSKSSSHHSHSHHSGHLNGSSSSSSSSRSVSHHSHEHHSGHLEDDSSSSSSSSVLSKIWGRHEIYQ
modifications: Phosvitin partially dephosphorylated
notes: Phosvitin extracted from the yolks of chicken eggs and dephosphorylated; estimated about 20-50% dephosphorylated
B2: Sigma phosvitin (untreated): Chicken phosvitin purchased from Sigma Chemical Co., used as received without dephosphorylation (protein, UniProt P02845 1112-1328, looked up)
Phosvitin: B1 Phosvitin
modifications: Phosvitin
notes: Chicken phosvitin purchased from Sigma Chemical Co., used as received without dephosphorylation

Test system: IL-8 release by Jurkat cells
Test: Inhibition of IL-8 release from PMA/ionomycin-stimulated Jurkat cells, IL-8 ELISA of supernatants (Example 1)
Type: cell-based, human
Conditions: PMA and ionomycin; for IL-8 / Percent Inhibition Of IL-8 Release: 24 hours; for IL-8: positive control 1119.2; for Percent Inhibition Of IL-8 Release: vs positive control; for Inhibition of IL-8 release as compared to the positive control (in words): summary of Table 1
Method: Jurkat cells (American Type Culture Collection (ATCC), Rockville, Md.) were cultured (1×10^6 cells per 0.5 ml culture) in IMDM culture medium (ATCC) containing insulin transferrin selenite solution (ITSS; Sigma) with and without phosvitin or BSA at 37° C., 5% CO2, for 30 minutes. Then, phorbol-12-myristate-13-acetate (PMA; […]; Sigma) and ionomycin ([…]; Sigma) were added to stimulate the cells, and the cells were further cultured at 37° C., 5% CO2, for 24 hours.
Cell culture supernatants were analyzed for IL-8 content by ELISA. The IL-8 ELISA was performed as follows. Anti-human IL-8 antibody (Pierce Endogen, Rockford, Ill.; catalogue number M801-E, lot number CK41959) was diluted to 1 μg/ml in phosphate buffered saline, pH 7.2-7.4, and 100 μl of the diluted antibody was added to each well of Nunc Maxisorb ELISA strip plates. The plates were incubated overnight at room temperature. The liquid was aspirated from the wells, and the plates were blotted on a paper towel. Then, 200 μl of assay buffer (phosphate buffered saline, pH 7.2-7.4, containing 4% BSA) were added to each well, and the plates were incubated for 1 hour at room temperature. The liquid was aspirated from the wells, and the wells were washed 3 times with wash buffer (50 mM Tris, 0.2% Tween-20, pH 7.9-8.1) and were then blotted on a paper towel. Standards and supernatant samples (50 μl/well; standards were diluted in assay buffer) were added to the wells, and the plates were incubated for 1 hour at room temperature with gentle shaking. The liquid was aspirated, the wells were washed 3 times with wash buffer, and the plates were then blotted on a paper towel. Then, 100 μl of biotin-labeled anti-human IL-8 (Pierce Endogen, Rockford, Ill.; catalogue number M802-E, lot number CE49513), diluted to 60 ng/ml in assay buffer, were added to each well. The plates were incubated for 1 hour at room temperature, the liquid was aspirated, the wells were washed 3 times with wash buffer, and the plates were blotted on a paper towel. Then, 100 μl of HRP-conjugated streptavidin (Pierce Endogen, Rockford, Ill.; catalogue number N100) in assay buffer, were added to each well. The plates were incubated for 30 minutes at room temperature, the liquid was aspirated, the wells were washed 3 times with wash buffer, and the plates were blotted on a paper towel. Finally, 100 μl of TMB substrate solution (Pierce Endogen, Rockford, Ill.; catalogue number N301) were added to each well. The plates were incubated for 30 minutes at room temperature. The reaction was stopped by adding 100 μl/well of 0.18 M H2SO4. The optical densities at 450 mu and 530 nm were read on an ELISA plate reader and the difference (OD 450-OD 530) calculated.

| Molecule | IL-8 (1.0 mg/ml sample) [pg/mL] | Percent Inhibition Of IL-8 Release (1.0 mg/ml sample) [%] | Inhibition of IL-8 release as compared to the positive control (in words) | IL-8 (0.1 mg/ml sample) [pg/mL] | Percent Inhibition Of IL-8 Release (0.1 mg/ml sample) [%] | IL-8 (0.5 mg/ml sample) [pg/mL] | Percent Inhibition Of IL-8 Release (0.5 mg/ml sample) [%] |
| --- | --- | --- | --- | --- | --- | --- | --- |
| Sigma BSA (untreated): Bovine serum albumin from Sigma (ELIS grade, low fatty acid and IgG), used as received [reference compound] | 1048.1 | 6.3 | did not significantly inhibit the release of IL-8 |  |  |  |  |
| B1 | 686.9 | 38.6 | inhibited IL-8 release as compared to the positive control in a dose-dependent fashion | 1024.7 | 6.4 | 830.4 | 25.8 |
| B2 | 1153.6 | 0 | did not significantly inhibit the release of IL-8 |  |  |  |  |
